Test results as given in patent US20250355001A1 (GTINVENT, published 2025).
Where no end group is shown, it is not given here. The star is where a group is joined. Biotin = O=C1N[C@H]2[C@H](CS[C@H]2CCCCC(=O)*)N1

Legend:
[1] = target: T1, full length human tau protein 2N4R (hT40) (human, UniProt P10636 1-758); assay: direct ELISA
T1 construct: recombinant; also called T441
How it was run: (§1)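 Plates were coated with 1 μg/ml tau protein or truncated fragment, or with 5 μg/ml streptavidin followed by 1 μg/ml biotinylated 13mer peptide, then blocked with 2% MPBS. Anti-tau scAbs were added at a starting concentration and double diluted. Bound scAb was detected with HRP-conjugated anti-human C kappa by absorbance.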

[2] = target: T2, dGAE (tau 297-391) (human, UniProt P10636 614-708); assay: direct ELISA
T2 construct: monomer; also called dGAE95
How it was run: as §1

[3] = target: dGA (tau 297-390) (human, UniProt P10636 614-707); assay: direct ELISA
How it was run: as §1

[4] = target: T3, aggregated dGAE (human, UniProt P10636 614-708, limits assumed); assay: ELISA, direct immobilisation, SDS + Triton treated dGAE aggregates
T3 construct: dGAE aggregated in vitro with DTT, 700 rpm, 37 C, 24 h; also called dGAE aggregates; dGAE agg

[5] = target: T3, aggregated dGAE; assay: sandwich ELISA, S1D12 mAb capture, SDS + Triton treated dGAE aggregates
Method: For aggregation, 1000 μL 100 μM dGAE+10 μL 10 mM DTT was added to a ‘LoBind’ microfuge tubes and agitated at 700 RPM/37° C. for 24 hours. Resulting sample centrifuged at 17,000×g/4° C. for 60 min and supernatant discarded to remove left over monomer. Pellet resuspended in half the original volume for future experiments and hereafter referred to as ‘aggregates’. 1 μl of aggregates was added to 1 ml of PBS and SDS was added to a final concentration of 1% (w/v). This was left to incubate on lab bench for 1 h with gentle agitation every 15 minutes. In order to neutralize the SDS effect on ELISA, Triton X-100 added to a final concentration of 3% (v/v) and mixed gently by pipetting to prevent any bubble formation. […] Similarly aggregates treated with only SDS or Triton X-100, untreated aggregates, dGAE monomers treated with only SDS or SDS+Titon X-100 were also added to designated wells as controls. All samples were then double diluted across the plate in final volumes of 100 μl. The final column was left with no protein to act as a blank.

[6] = target: T2, dGAE (tau 297-391); assay: sandwich ELISA, 423 mAb capture, dGAE titrated, scAb at 10 µg/ml [D00039 Figure 34 cont. F]
[7] = target: T1, full length human tau protein 2N4R …; assay: Biacore
How it was run: (§2)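 scAb captured on flow cell 2 of an antibody-coated chip, flow cell 1 as reference; tau analyte injected 120 s association, 420 s dissociation, glycine pH 2.0 regeneration, in multi-cycle or single-cycle kinetics format. Responses fitted to a 1:1 binding model for kinetics and affinity.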

[8] = target: T1, full length human tau protein 2N4R …; assay: SPR, summary table
How it was run: as §2

[9] = target: T1, full length human tau protein 2N4R …; assay: SPR, scAb captured, tau analyte
How it was run: as §2

[10] = target: T1, full length human tau protein 2N4R …; assay: sandwich ELISA, S1D12 mAb capture, scAb detection
How it was run: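 Read-out was HRP anti-HuCk with absorbance at 450 nm (positive above 0.3 after background subtraction) or chemiluminescence, including directly HRP-conjugated scAbs.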

[11] = target: T4, tau parent peptide 355-367 (GSLDNITHVPGGG); assay: ELISA on biotinylated peptide over streptavidin
T4 peptide: Biotin-GSLDNITHVPGGG
Method: Briefly, 5 μg/ml streptavidin (Thermo Fisher) was adsorbed to Nunc 96-well MaxiSorp plates and following incubation at 37° C. for 1 h, the plates were washed as normal and blocked with 2% MPBS. N-terminally biotinylated peptides (Prolmmune Ltd) were added to the plates and incubated for 1 h at 37° C. Subsequently, test scAbs at starting concentrations of 100-500 nM was added and double diluted across the plate for each peptide and incubated for 1 h at 37° C. Rest of the ELISA was conducted as described above and the plates were read at absorbance 450 nm. Immunoreactivity of the scAb of interest was quantified as the % of scAb was bound for each peptide at a chosen concentration (FIG. 15-20).

[12] = target: T2, dGAE (tau 297-391); assay: sandwich ELISA, 423 mAb capture, dGAE titrated, scAb at 10 µg/ml
[13] = target: T2, dGAE (tau 297-391); assay: as above; remark: listed apart in the source
[14] = target: T1, full length human tau protein 2N4R …; assay: hT40 ELISA
[15] = target: tau fragment 266-359 (R1-3) (human, UniProt P10636 583-676); assay: direct ELISA
[16] = target: T2, dGAE (tau 297-391); assay: sandwich ELISA, 423 mAb capture, dGAE titrated, scAb at 10 µg/ml [D00041 Figure 34 cont. O]
[17] = target: T5, human tau (hT40) with P301S and G335D of Line 66 mice (human, UniProt P10636 1-758); assay: Western blot
T5 construct: transgene product in brain homogenate or plasma; also called L66 human tau

[18] = target: T1, full length human tau protein 2N4R …; assay: SPR, hT40 immobilised, mAb analyte
Method: For anti-tau mAb SPR measurements, htau40 was conjugated to the surface of a CM5 sensor chip using amine coupling as explained previously. Briefly, 2 μg/mL htau40 in 10 mM Sodium acetate buffer (pH 4.0) was passed over the activated chip surface (EDC/NHS) in flow cell 2 for a period for 45 s followed by blocking with 1 M ethanolamine-HCl PH 8.5. Flow cell 1 was set up as reference control and blocked simultaneously. Final immobilisation level of htau40 (Rmax) was approximately 250 RU. […] The mAb was added for a 120 s association period and 600 s dissociation period followed by a regeneration cycle of 30 s injection of glycine buffer pH 1.5 in between each cycle. Binding responses were analysed in Biacore X100 evaluation software and data fitted to a 1:1 binding model to obtain kinetic and affinity characterisation.

[19] = target: T3, aggregated dGAE; assay: capture ELISA, mAb coated at 1 µg/ml, aggregates titrated, S1D12 scAb detection

T1 sequence (P10636 other isoform, or with tags, fused parts or gaps limits assumed): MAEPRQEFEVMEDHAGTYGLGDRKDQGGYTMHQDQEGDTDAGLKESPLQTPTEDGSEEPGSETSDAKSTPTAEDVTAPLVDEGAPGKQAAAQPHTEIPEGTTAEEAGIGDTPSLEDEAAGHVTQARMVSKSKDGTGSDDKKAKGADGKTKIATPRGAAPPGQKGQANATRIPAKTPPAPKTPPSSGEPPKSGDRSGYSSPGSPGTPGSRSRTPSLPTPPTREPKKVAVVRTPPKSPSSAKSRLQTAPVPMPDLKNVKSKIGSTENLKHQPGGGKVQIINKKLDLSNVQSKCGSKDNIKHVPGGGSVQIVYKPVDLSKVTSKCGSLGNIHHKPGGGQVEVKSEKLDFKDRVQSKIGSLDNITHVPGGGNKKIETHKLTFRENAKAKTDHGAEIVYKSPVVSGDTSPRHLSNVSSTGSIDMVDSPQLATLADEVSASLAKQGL
T5 sequence (P10636 other isoform, or with tags, fused parts or gaps P301S G335D P301S G335D limits assumed): as the sequence (P10636 other isoform, or with tags, fused parts or gaps limits assumed) above, with P301S, G335D counted along it
Chain of tau fragment 266-359 (R1-3) (P10636 583-676): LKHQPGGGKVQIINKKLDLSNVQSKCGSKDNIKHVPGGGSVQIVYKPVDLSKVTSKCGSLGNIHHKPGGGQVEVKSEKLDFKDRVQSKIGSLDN

B1: E2B7 scAb (scFv, not shown: small tags and cut ends)
scFv: QVQLQESGPSLVKPSQTLSLTCTVSGFSLTSWGVAWVRQAPGKALEWLGTMRSGGGTEYNPALKSRLSITRDTSKSQVSLSLSSVTTEDMAMYYCARGYLSGIHYAWGRGLLVSVSSEGKSSGASGESKVDDQAVLTQLSSVSGSLGQRVSITCSGSSSNVGDGDYVGWFQQLPGSAPKLLIYSARNRASGVPDRFSGSRSGNTATLTITSLQAEDEADYYCASIDTSRSHIFGSGTRLTVLG
notes: scAb
With B1 the binding result [1] was “no binding (tested: 25 ug/ml)”, the “EC50 (read off the curve)” value [2] was ~0.1 µg/mL and the binding result [3] was “no binding (tested: 25 ug/ml)”.

B2: CA9 scAb (scFv, not shown: small tags and cut ends)
scFv: QVQLQESGPSLVKPSQTLSLTCTVSGFSLTSNSVGWVRQAPGKAPEWVAGIDTDGEEGYNPALNSRLSITRDTSKSQVSLSLSSVTSEDTAVYYCGRSYRSDGLAYGYVQAIDYWGPGLLVTVSSEGKSSGASGESKVDDQAVLTQPASVSGSLGQRVSITCSGSFIGISSVGWFQQLPGSGLRTIIVASDGRPSGVPDRFSMSKSGNTATLTISSLQAEDEADYFCGSSDRTQYTGVFGSGTRLTVLG
notes: scAb
With B2 the LoD [4] was 40 ng/mL, the LoD [5] was 4 ng/mL and the “EC50 (read off the curve)” value [6] was ~0.2 µg/mL.

B3: CA4 scAb (scFv, not shown: small tags and cut ends)
scFv: QVQLQESGPSLVKPSQTLSLTCTVSGFSLTSYSVYWVRQAPGQALEWISIMYASGRVDYNPALKSRLSITRDTSKSQFSLSLSSVTTEDTAVYYCTRGIENWGPGLLVTVSSEGKSSGASGESKVDDDIQVTQSPSSLSASLTERVSITCRTSQSVNNYLSWYQQKPGQAPKLLIYYATRLYTDVPSRFSGSGSGTDYTLTITSLEADDTATYYCLQYDSTPLAFGGGTNVEIK
notes: scAb
In the case of B3, the Kd [7] is reported as 3.6 nM, the Kd [8] is reported as 3.61 nM and the Kd [9] is reported as 3.61 nM. It also gave a koff [9] of 0.00165 s⁻¹, a kon [9] of 458000 M⁻¹ s⁻¹ and a LoD chemiluminescence detection [10] of 0.37 ng/mL. For the same binder, the LoD colourimetric detection [10] was 6 ng/mL, the binding result [11] was “binds” and the “EC50 (read off the curve)” value [12] was ~0.3 µg/mL.

B4: CB3 scAb (scFv, not shown: small tags and cut ends)
scFv: QVQLQESGPSLVKPSQTLSLTCTVSGFSLSSVAVNWVRQAPGKVPEWLGGIISNGGTGYNPALKSRLSITRDTSKSQVSLALTHVTTEDTAVYYCGRGVEWEGSMDYLGPGLLVTVSSEGKSSGSGSETKVDDQSVLTQPSSVSGFLGQRVTITCSGSSSNVGAGSYVGWYQQVPGSGLRILIYGATKRASGLPDRFSGSRSGNTATLTISSLQAEDEADYYCVSYQTDFTLVFGSGTRLTVLG
notes: scAb
With B4 the “EC50 (read off the curve)” value [13] was ~0.4 µg/mL.

B5: CE3 scAb (scFv, not shown: small tags and cut ends)
scFv: QVRLQESGPSLVKPSQTLSVTCTVSGFSLISNAVGWVRQAPGKVPESLAGCSSDGKCYYNSALKSRLDITRDTSKNQISLSLSSVTTDDAAVYYCTRGYYPVYGYDYLGTIDYWGPGLLVTVSSEGKSSGASGESKVDDQAVLTQPSSVSGSLGQRVSITCSGSSSNVGRNDVAWFQQLPGSGLRTIIYGTTSRPSGIPDRFSGSKSGVTATLTIDSLQAEDEADYFCASGDSSAINDIFGSGTRLTVLG
notes: scAb
B5 was tested, and the Kd [8] was 3.79 nM, the “EC50 (read off the curve)” value [14] was ~0.1 µg/mL and the “EC50 (read off the curve)” value [15] was ~0.3 µg/mL. The Kd [9] was 3.79 nM, the koff [9] was 0.000662 s⁻¹ and the kon [9] was 174000 M⁻¹ s⁻¹. The “EC50 (read off the curve)” value [16] was ~0.3 µg/mL.

B6: S1G2 mAb (antibody, mouse IgG2a, V domains shown)
VH: QVQLQESGPSLVKPSQTLSLTCTVSGFSLTSNSVGWVRQAPGKAPEWVAGIDTDGEEGYNPALNSRLSITRDTSKSQVSLSLSSVTSEDTAVYYCGRSYRADGLAYGYVQAIDYWGPGLLVTVSS
VL: QAVVTQPSSVSGSLGQRVSITCSGSFIGISSVGWFQQLPGSGLRTIIVASDGRPSGVPDRFSMSKSGNTATLTISSLQAEDEADYFCGSSDRTPYTGVFGSGTRLTVLG
notes: sheep-mouse IgG2a chimeric mAb; also called S1G2 antibody
In the case of B6, the binding result [17] is reported as “binds”, the Kd [18] is reported as 0.14 nM and the koff [18] is reported as 4.75e-05 s⁻¹. The kon [18] was 340000 M⁻¹ s⁻¹ and the “EC50 (read off the curve)” value [19] was ~30 nM.
